Assay [1] addresses IGF-I G1S-A70V (purified, soluble) (human, UniProt P05019 50-117). The assay can be described thus: BIACORE; KD mut/KD wt. Here is the method:
(§1) Carboxymethylated dextran biosensor chips (CM5, BIAcore Inc.) were activated with EDC (N-ethyl-N′-(3-dimethylaminopropyl)-carbodiimide hydrochloride) and NHS (N-hydroxysuccinimide) according to the supplier's instructions. For immobilization, IGF mutants in 20 mM sodium acetate, pH 4.8, were injected onto the biosensor chip at a concentration of 50 μg/ml to yield approximately 450-600 RU's (resonance-response units) of covalently-coupled protein. Unreacted groups were blocked with an injection of 1 M ethanolamine. […] Association rates (kₐ) and dissociation rates (kd) were calculated separately using a 1:1 Langmuir™ association model in the BIACORE™ evaluation software v. 3.0. The equilibrium dissociation constant (KD) was calculated as kd/kₐ.
For orientation: Surface plasmon resonance follows binding to a sensor surface in real time, without labels.

In assay [2] the target is T1, F49A IGF-I (purified, soluble) (human, UniProt P05019 49-118).
T1 construct: made from the wild-type template pBKIGF2B-f1-ori; also called F49A IGF variant
T1 sequence (P05019 49-118 F97A): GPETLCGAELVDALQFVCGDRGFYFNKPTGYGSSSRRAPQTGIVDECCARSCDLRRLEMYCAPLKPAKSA
The assay can be described thus: BIACORE; KD mut/KD wt. Here is the method:
as §1

The target in assay [3] is T2, IGF-I R36A (purified, soluble) (human, UniProt P05019 49-118).
T2 construct: made from the wild-type template pBKIGF2B-f1-ori
T2 sequence (P05019 49-118 R84A): as the sequence (P05019 49-118 F97A) above, with R36A, A49F counted along it
The assay is described as follows: BIACORE; KD mut/KD wt. The procedure:
as §1

Assay [4] has as its target T3, IGF-I T4A (purified, soluble) (human, UniProt P05019 49-118).
T3 construct: made from the wild-type template pBKIGF2B-f1-ori
The assay is described as follows: BIACORE; KD mut/KD wt. The procedure: as §1

Assay [5] concerns the target T4, IGF-I F25A (purified, soluble) (human, UniProt P05019 49-118).
T4 construct: made from the wild-type template pBKIGF2B-f1-ori
The assay is described as follows: BIACORE; KD mut/KD wt. Here is the method:
as §1

Assay [6] concerns the target T5, IGF-I F16A (purified, soluble) (human, UniProt P05019 49-118).
T5 construct: made from the wild-type template pBKIGF2B-f1-ori; also called IGF-F16A; FI6A
The assay can be described thus: BIACORE; KD mut/KD wt. The procedure:
as §1

The target in assay [7] is T6, IGF-I V11A (purified, soluble) (human, UniProt P05019 49-118).
T6 construct: made from the wild-type template pBKIGF2B-f1-ori
T6 sequence (P05019 49-118 V59A): as the sequence (P05019 49-118 F97A) above, with V11A, A49F counted along it
The assay is described as follows: BIACORE; KD mut/KD wt. Here is the method:
as §1

For assay [8], the target named is T7, wild-type human IGF-I (purified, soluble) (human, UniProt P05019 49-118).
T7 construct: immobilized on the biosensor chip by amine coupling in BIACORE experiments; also called IGF-I WT
T7 sequence (P05019 49-118): as the sequence (P05019 49-118 F97A) above, with A49F counted along it
The assay is described as follows: BIACORE; KD mut/KD wt. The procedure:
as §1

Assay [9] deals with T8, IGF-I P39A (purified, soluble) (human, UniProt P05019 49-118).
T8 construct: made from the wild-type template pBKIGF2B-f1-ori
T8 sequence (P05019 49-118 P87A): as the sequence (P05019 49-118 F97A) above, with P39A, A49F counted along it
The assay can be described thus: BIACORE; KD mut/KD wt. The procedure: as §1

In assay [10] the target is T9, IGF-I G1S-A70V displayed on phage (human; bacteriophage M13).
T9 construct: monovalent M13 phage display; template of the alanine scan; also called G1S-A70V IGF-I; wild-type-like IGF-I variant; not shown: M13 gene III fragment (residues 249-406, display partner) and the junction to it
The assay can be described thus: competitive phage ELISA (FIG. 1). Here is the method:
Then phage concentrations were normalized to yield a maximal ELISA signal of 0.2-0.4 for each mutant (Lowman, in Cabilly, S. (ed.), supra). Threefold serial dilutions of soluble competitor were prepared on non-absorbent microtiter plates (Nunc, F, 96 wells) with binding buffer (0.5% TWEEN™ 20/PBS) containing phage at the previously-determined concentrations. […] After blocking, the plates containing immobilized target were washed with 0.05% TWEEN™/PBS buffer and subsequently incubated with 80 μl/well of the premixed phage-competitor solutions for 1 hour at room temperature. After washing, bound phage was detected with 80 μl/well of a solution containing a primary rabbit anti-phage polyclonal antibody and a secondary goat anti-rabbit monoclonal antibody-horseradish peroxidase conjugate in 0.5% TWEEN 20™/PBS. o-Phenylenediamine (Sigma) and tetramethylbenzidine (Kirkegaard and Perry) were used as chromogenic substrates, resulting in product detection at 492 and 450 nm, respectively. IC₅₀ values were determined by fitting the binding data to a generic saturation curve (Lowman, in Cabilly, S. (ed.), supra). […] Numbers in Table I represent mean +standard deviation of individually assessed IC₅₀ values.
A general note: ELISA stands for enzyme-linked immunosorbent assay.

Assay [11] deals with T10, IGF-I Y31A (G1S-A70V background) displayed on phage (human; bacteriophage M13).
T10 construct: monovalent M13 phage display; not shown: M13 gene III fragment (residues 249-406, display partner) and the junction to it
T10 chain: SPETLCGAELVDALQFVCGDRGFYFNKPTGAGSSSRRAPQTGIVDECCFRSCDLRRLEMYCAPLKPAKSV
The assay is described as follows: competitive phage ELISA. The procedure:
(§2) Phage particles were harvested and resuspended in PBS buffer as described in Lowman, H. B., “Phage Display of Peptide Libraries on Protein Scaffolds,” in Cabilly, S. (ed.), Combinatorial Peptide Library Protocols (Humana Press Inc.: Totowa, N.J., 1998), pp. 249-264. Then phage concentrations were normalized to yield a maximal ELISA signal of 0.2-0.4 for each mutant (Lowman, in Cabilly, S. (ed.), supra). Threefold serial dilutions of soluble competitor were prepared on non-absorbent microtiter plates (Nunc, F, 96 wells) with binding buffer (0.5% TWEEN™ 20/PBS) containing phage at the previously-determined concentrations. […] After blocking, the plates containing immobilized target were washed with 0.05% TWEEN™/PBS buffer and subsequently incubated with 80 μl/well of the premixed phage-competitor solutions for 1 hour at room temperature. After washing, bound phage was detected with 80 μl/well of a solution containing a primary rabbit anti-phage polyclonal antibody and a secondary goat anti-rabbit monoclonal antibody-horseradish peroxidase conjugate in 0.5% TWEEN 20™/PBS. o-Phenylenediamine (Sigma) and tetramethylbenzidine (Kirkegaard and Perry) were used as chromogenic substrates, resulting in product detection at 492 and 450 nm, respectively. IC₅₀ values were determined by fitting the binding data to a generic saturation curve (Lowman, in Cabilly, S. (ed.), supra). […] Numbers in Table I represent mean +standard deviation of individually assessed IC₅₀ values.
(§3) At least two different clones of every mutant were tested.

In assay [12] the target is T11, des(1-2)-IGF-I displayed on phage (human; bacteriophage M13).
T11 construct: range 249-406; monovalent M13 phage display
The assay can be described thus: competitive phage ELISA. The procedure:
as §2, §3

Assay [13] deals with T12, IGF-I E58A (G1S-A70V background) displayed on phage (human; bacteriophage M13).
T12 construct: monovalent M13 phage display; not shown: M13 gene III protein fragment (residues 249-406), the phage display carrier, and its junction to IGF-I
T12 chain: T10 chain with A31Y, E58A
The assay can be described thus: competitive phage ELISA. Here is the method: as §2, §3

Substitutions are numbered along the chain they refer to.

T5 sequence (P05019 49-118 F64A): as the sequence (P05019 49-118 F97A) above, with F16A, A49F counted along it
T4 sequence (P05019 49-118 F73A): as the sequence (P05019 49-118 F97A) above, with F25A, A49F counted along it
T3 sequence (P05019 other isoform, or with tags, fused parts or gaps): as the sequence (P05019 49-118 F97A) above, with T4A, A49F counted along it

B1: human IGFBP-1 (other, UniProt P08833 26-259, looked up)
chain: APWQCAPCSAEKLALCPPVSASCSEVTRSAGCGCCPMCALPLGAACGVATARCARGLSCRALPGEQQPLHALTRGQGACVQESDASAPHAAEAGSPESPESTEITEEELLDNFHLMAPSEEDHSILWDAISTYDGSKALHVTNIKKWKEPCRIELYRVVESLAKAQETSGEEISKFYLPNCNKNGFYHSRQCETSMDGEAGLCWCVYPWNGKRIPGSPEIRGDPNCQIYFNVQN
notes: secreted recombinant protein purified from conditioned medium
What is called IC50 is the concentration that gives 50% inhibition. A higher IC50 goes with weaker potency in that assay. Turning to B1, the “relative KD” value turned out to be 1.1 in [1]; 70 in [2]; 1.1 in assay [3]; 6.9 in [4]; 25 in assay [5]; 25 in assay [6]. The “relative KD” value was 5.1 in assay [7], 1 in assay [8] and 1 in [9]. Besides, the concentration for half-maximal inhibition (IC50) in [10] was 8.5 nM; in [11] it was 6.8 nM; in [12], 5 nM; in assay [13] it was 11.9 nM.
